# System: Hela cells
# Experiment: Flow cytometry binding to Hela cells
# Assay type: cell-based
# Settings: transfection supernatant, FIG. 6
# Experimental: The binding activity of the antibodies to Hela cells (ATCC® CCL-2, provided by COBIOER) and to RPTEC/TERT1 cells (ATCC® CRL-4031, provided by COBIOER) was tested by flow cytometry using the transfection supernatants. Briefly, target cells were digested with 0.02% EDTA-2Na, centrifuged at 1500 rpm for 3 mins, and resuspended with PBS. After counting, the cells were added to a 1.5 ml centrifuge tube with 1×10^6 cells per tube, centrifuged at 1500 rpm for 5 minutes, and the supernatant was discarded. Then all the operations were carried out on an ice bath. 100 μL of transfection supernatant was added to each 1.5 ml centrifuge tube. Blank cells, blank cells plus secondary antibody, medium and HEK293 supernatant were set up as the controls. The reaction was performed on an ice bath for 1 hour. Then the cells were pelleted and washed twice with PBS. The secondary antibody, goat anti-Human IgG (PE, abcam, ab98596), was diluted (1:200) and added using 100 μL per tube. The reaction was performed on an ice bath for 1 hour in the dark. The cells were pelleted again and washed twice with PBS, resuspended in 300 μL PBS, and FL2 fluorescence readings were measured by cytometry. The results were analyzed by FlowJoTM10 software.
# Anti-FOLR1 antibody binding to Hela and RPTEC/TERT1 cells was tested by FACS. The study was carried out as described above. […]
molecule,measurement,value
"F40: anti-FOLR1 antibody clone; ""Clone F40 has a different HCDRs and LCDRs, and with different HFR and LFR"" (antibody, V domains shown) VH: EVQLLESGGGVVQPGRSLRLSCAASGFTFSSYAMHWVRQAPGKGLEWVAVISYDGSNKYYADSVKGRFIISRDNSKNTVYLQMNSLRAEDTAVYYCARPTYVFTYTGSSFDYWGQGTQVTVSS VL: DIQVTQSPSSLSASLGDTVSITCRASRGLTDSVAWYQQKPGQAPKLLIYAASTLQSGVPSRFGGSGSGSYFTLTITSLQPEDVATYYCQNYKSAPWTFGQGTKVEIK",Hela cell binding,weakly positive
